Experimental data published in the Human Domainome abundance scans (Beltran et al. 2025).

B1: Homeobox protein cut-like 1, residues 548 to 629; numbered along this chain, P39880 (parent)
chain: GEEMDTAEIARQVKEQLIKHNIGQRIFGHYVLGLSQGSVSEILARPKPWNKLTVRGKEPFHKMKQFLSDEQNILALRSIQGR

Variants of: B1
Assay: abundance fitness (aPCA) (normalised: wild type 0, dead -1); higher = more abundant; growth selection in yeast, the domain comes from the species named
Settings: Homo sapiens

Abundance fitness, by site and new letter:
S78: I -0.066; D 0.097; E 0.087; P -0.359; K 0.044; R 0.003; H -0.053; W -0.201; A 0.042; C -0.107; G 0.003; Y -0.223; N 0.018; T 0.005; M -0.009; F -0.188; V -0.139
L74: A -0.039; E 0.008; D -0.019; P -0.417; T -0.087; M -0.074; R -0.041; K 0.029; H 0.007; F -0.028; G -0.159; Y -0.112; N -0.064; S -0.083; I 0.032; V 0.017; Q 0.005; W -0.098; C -0.162
Q80: M -0.079; L -0.126; E 0; Y -0.188; R -0.176; W -0.307; G -0.06; K -0.12; C -0.028; T -0.095; D -0.089; V 0; F -0.278; P -0.098; S -0.017; A 0.034; H -0.075; I -0.098; N -0.026
A75: P -0.314; S 0.041; K 0.095; L -0.061; Y -0.027; C -0.11; F -0.066; R 0.05; W 0.009; M -0.039; V -0.127; T 0.012; E 0.092; Q 0.038; N 0.187; I -0.146; D 0.109
I79: F -0.086; R -0.065; A -0.047; L 0.028; E -0.058; V 0.015; T -0.157; K 0.038; W -0.09; Y -0.097; M 0.046; G -0.203; C 0.003; D -0.233; Q 0.011; H -0.009; P -0.229
N72: V -0.315; C -0.098; I -0.289; F -0.143; T -0.115; P -0.432; W -0.131; K -0.007; R -0.137; H -0.063; L -0.251; Q 0.03; Y -0.099; G -0.04; M -0.132; A 0.049; D -0.221
L76: K -0.861; I -0.291; V -0.357; N -0.856; T -0.752; A -0.638; Q -0.6; D -0.716; C -0.484; P -0.586; R -0.945; S -0.697; E -0.758; G -0.806; M -0.461
G81: L -0.097; N 0.117; A 0.044; C 0.027; I 0.008; F -0.138; K -0.068; E 0.105; D 0.043; H 0.04
R77: P -0.419; V -0.035; D -0.292; S 0.041; W -0.336; A 0.049; I -0.116; E -0.005; H -0.096; C -0.032; N -0.118; L -0.073; Q 0.018; M -0.096; F -0.511; K 0.103; G -0.086
I73: D -0.745; E -0.637; H -0.5; F -0.026; W 0.05; V 0.038; P -0.303; L -0.064; S 0.005; C -0.129; Q -0.336; Y -0.627; R -0.56; T -0.163; A -0.019; M -0.064; G -0.44; N -0.51
Q71: Y -0.257
